Blank lines part the entries; values can stand above or below the substance they belong to.
Tests used:
[1] = target: PtuA of retron Ec78, wild type, His-Sumo tagged (E. coli ECONIH5); experiment: SEC
[2] = target: PtuA-E396Q of retron Ec78 (ATPase-deficient mutant), as expressed from the Ec78 operon (E. coli ECONIH5); experiment: cryo-EM structure
[3] = target: PtuA-Q361L of retron Ec78, His-Sumo tagged, co-expressed with PtuB without the retron (E. coli ECONIH5); experiment: cryo-EM structure

- stoichiometry N [2]: 4
Substance: PtuA-E396Q of retron Ec78 (ATPase-deficient mutant), as expressed from the Ec78 operon (enzyme)

- stoichiometry N (PtuB subunits for four PtuA subunits) [3]: 2
Substance: PtuB of retron Ec78, co-expressed with His-Sumo-PtuA from pRSF-Duet (enzyme)

Further lines, the substance ahead of its results:

Substance: PtuA of retron Ec78, wild type, His-Sumo tagged (enzyme)
- stoichiometry N [1]: 4

Substance: PtuA-Q361L of retron Ec78, His-Sumo tagged, co-expressed with PtuB without the retron (enzyme)
- stoichiometry N [3]: 4

Substance: PtuB of retron Ec78 with C-terminal His-tag, as expressed from the Ec78 operon (enzyme)
- stoichiometry N (PtuB subunits for four PtuA subunits) [2]: 2

Substance: Reverse transcriptase of retron Ec78 (enzyme)
- stoichiometry N (RT for four PtuA subunits) [2]: 2
- stoichiometry N (RT–ncRNA–msDNA for four PtuA subunits) [2]: 1

— PMC12819146
